# Non-standard residues stand in square brackets, D forms with d. No end group written: not given here. Nle = CCCC[C@H](N)C(=O)O
# Legend:
# [1] = system: HEK293 cell membranes (c-Met system); experiment: 125I-Norleual binding assay, HEK293 cell membranes; design: species or system human; details: 1.5 nM HGF or 1 μM Norleual
# Protocol: (§1) FIG. 3C: ^125I-Norleual was bound to HEK membranes in the presence or absence of 1.5 nM HGF (n=8) or 1 μM Norleual (n=6). Total binding is reported as percent control (n=10), (*p<0.001). Error bars indicate±SD. […] Error bars indicate SD and data points were performed in duplicate.
# ^125I-Norleual binding assay. HEK293 cells were grown to confluency in DMEM fortified with 10% FBS. Media was aspirated and cells were washed twice with ice-cold PBS. Cells were lysed with hypotonic buffer and homogenized as described by Zhang et al. (1999, J. Pharmacol. Exp. Ther. 289: 1075-1083; 2003 J. Cell Biochem. 88: 408-417). 450 μg of membrane protein was incubated with 1.5 nM ^125I-Norleual with or without Norleual or HGF in a total volume of 250 μl PBS, 0.1% BSA. Tubes were spun and binding was carried out for 60 minutes at RT. Bound and free ligands were separated by vacuum filtration using (Brandel Cell Harvester, Schleicher & Schull, Keene, N.H., USA) 32 glass filters. Radioactivity retained by the filters was measured using a gamma counter. […] Data analysis was preformed using Prism software (GraphicPad) per the supplier's recommendations.
# Materials and methods were as described in Example 1. In separate tests of unlabeled competitors, both Norleual and HGF competed with ^125I-HGF for high affinity binding to mouse liver plasma membranes (FIGS. 2A, 2B). […]
# [2] = system: c-Met receptor; experiment: Cross-linking of 125I-COMPOUND 2 or 125I-HGF to HEK293 cell membranes with unlabeled competitor; assay type: binding, human; details: 125I-HGF cross-linked to HEK293 cell membranes, FIG. 3B
# Protocol: as §1
# Briefly, COMPOUND 2 was iodinated with […] and bound and cross-linked to HEK cell membranes with or without 1 nM COMPOUND 2 or 1 nM hepatocyte growth factor. Following solubilization and separation of free label by molecular sieving, total radioactive counts were determined. The ability of the ligand COMPOUND 2 to compete with hepatocyte growth factor binding to the c-Met receptor was also tested using mouse liver plasma membranes and intact HEK293 cells. Briefly, mouse liver was homogenized and incubated with ^125I-HGF with various concentrations of HGF or COMPOUND 2. Membranes were pelleted and unbound label was removed by washing, and total radioactive counts were determined. Next, HEK293 cell membranes were cross-linked with ^125I-HGF with unlabeled HGF or COMPOUND 2.
# [3] = system: B16-F10 murine melanoma cells; experiment: B16-F10 scratch wound closure assay; assay type: cell-based; details: six hours after scratch
# Protocol: Scratch Assay. Confluent B16-F10 cells in 48 well plates were scratched with a 200 μl pipette tip. Wells were treated with vehicle, HGF, and/or Norleual. Photos were taken at various time points. Photos were graded by two investigators.
# See Example 1 for Materials and Methods. Norleual was applied to HGF treated B16-F10 murine melanoma cells in a scratch wound assay. HGF accelerated the wound closure, however Norleual was able to attenuate HGF stimulated closure six hours after scratch (FIG. 11A).
# [4] = biological target: c-Met (Homo sapiens, UniProt P08581); experiment: Immunoprecipitation/Western blot of HGF-dependent c-Met and Gab1 phosphorylation and association in HEK293 cells; assay type: cell-based; design: host or cells: HEK293
# Protocol: (FIG. 5A) HEK293 cells were treated for 10 minutes with HGF at indicated concentrations. Lysates were immunoprecipitated (IP) with anti-c-Met antibody (DO-24) and immunoblotted (IB) with anti-c-Met or anti-phospho-tyrosine (06-427) antibody. (FIG. 5B) HEK293 cells were treated for 10 minutes with HGF and/or Norleual. Lysates were IP with anti-c-Met (DO-24) and IB with anti-c-Met (DQ-13) or anti-phospho-tyrosine (HAM 1676). (FIG. 5C) HEK293 lysates were IP with anti-c-Met (DO-24) and IB with anti-Gab1. (FIG. 5D) HEK 293 lysates were IP with anti-Gab1 and IB with anti-Gab1 or anti-phospho-tyrosine (HAM 1676). (FIGS. 5E, 5F, 5G) Relative amounts (normalized to % total c-Met in IP) of quantified IP/IB band intensities for control, 110 pM HGF-, 110 pM HGF and 20 pM Norleual-, and 20 pM Norleual-treated HEK293 cells for phospho-c-Met (FIG. 5E, n=4), phospho-Gab1 (FIG. 5F, n=4), and c-Met associated Gab1 (FIG. 5G, n=3). Error bars indicate ±SD.
# HEK293 cells were treated for 10 minutes with HGF and/or Norleual at the indicated concentrations. Lysates were IP with anti-c-Met (DO-24, Millipore/Upstate, Billerica, Mass.) and IB with anti-c-Met (DQ-13, Millipore/Upstate) or anti-phosphotyrosine (HAM1676, lot JLB03, R&D Systems, Inc., Minneapolis, Minn.).
# Immunoprecipitation and Western blotting. Cells were serum starved for two hours in DMEM before treatment. Cells were harvested using RIPA lysis buffer (Upstate Biotechnol. Inc., Lake Placid, N.Y.) with phosphatase inhibitor cocktails 1 and 2 (Sigma, St Louis, Mo., USA). Protein concentration was determined using the BCA assay (Pierce, Rockford, Ill., USA). Lysates were incubated with antibody overnight at 4° C. Immunoprecipitation controls received mouse non-specific Ig (Upstate). Proteins were captured with protein-A agarose (Upstate) and were washed with PBS. Proteins were resolved using SDS-PAGE electrophoresis (Criterion, BioRad, Hercules, Calif., USA), transferred to nitrocellulose, and incubated with appropriate antibodies. Proteins were visualized using the Supersignal West Pico Chemiluminescent Substrate system (Pierce). The film images were digitized and analyzed using TotalLab® software (AmershamPharmacia/GE HealthCare, Piscataway, N.J.).
# Whether the interaction of Norleual with the c-Met receptor had functional consequences regarding c-Met signaling was next investigated by determining whether Norleual could alter the phosphorylation status of cellular protein tyrosine phosphate (FIG. 4) and more specifically, of c-Met (i.e., c-Met activation), and also whether Norleual could modulate Gab1 association with c-Met. Human embryonic kidney HEK293 cells were activated by HGF in the presence or absence of Norleual. Solubilized membranes were immunoprecipitated (IP) with an anti-c-Met antibody and immunoblotted (IB) for total c-Met, anti-phospho-tyrosine to detect the activated form of c-Met, and anti-Gab1 to detect c-Met/Gab1 association. […] To confirm these findings, treated HEK293 lysates were precipitated with anti-Gab1 and blotted for total Gab1 and phospho-Gab1, its activated form. Again, Norleual inhibited HGF-induced Gab1 phosphorylation (FIGS. 5D, […]).
# c-Met, sequence (P08581 308-1390 limits assumed): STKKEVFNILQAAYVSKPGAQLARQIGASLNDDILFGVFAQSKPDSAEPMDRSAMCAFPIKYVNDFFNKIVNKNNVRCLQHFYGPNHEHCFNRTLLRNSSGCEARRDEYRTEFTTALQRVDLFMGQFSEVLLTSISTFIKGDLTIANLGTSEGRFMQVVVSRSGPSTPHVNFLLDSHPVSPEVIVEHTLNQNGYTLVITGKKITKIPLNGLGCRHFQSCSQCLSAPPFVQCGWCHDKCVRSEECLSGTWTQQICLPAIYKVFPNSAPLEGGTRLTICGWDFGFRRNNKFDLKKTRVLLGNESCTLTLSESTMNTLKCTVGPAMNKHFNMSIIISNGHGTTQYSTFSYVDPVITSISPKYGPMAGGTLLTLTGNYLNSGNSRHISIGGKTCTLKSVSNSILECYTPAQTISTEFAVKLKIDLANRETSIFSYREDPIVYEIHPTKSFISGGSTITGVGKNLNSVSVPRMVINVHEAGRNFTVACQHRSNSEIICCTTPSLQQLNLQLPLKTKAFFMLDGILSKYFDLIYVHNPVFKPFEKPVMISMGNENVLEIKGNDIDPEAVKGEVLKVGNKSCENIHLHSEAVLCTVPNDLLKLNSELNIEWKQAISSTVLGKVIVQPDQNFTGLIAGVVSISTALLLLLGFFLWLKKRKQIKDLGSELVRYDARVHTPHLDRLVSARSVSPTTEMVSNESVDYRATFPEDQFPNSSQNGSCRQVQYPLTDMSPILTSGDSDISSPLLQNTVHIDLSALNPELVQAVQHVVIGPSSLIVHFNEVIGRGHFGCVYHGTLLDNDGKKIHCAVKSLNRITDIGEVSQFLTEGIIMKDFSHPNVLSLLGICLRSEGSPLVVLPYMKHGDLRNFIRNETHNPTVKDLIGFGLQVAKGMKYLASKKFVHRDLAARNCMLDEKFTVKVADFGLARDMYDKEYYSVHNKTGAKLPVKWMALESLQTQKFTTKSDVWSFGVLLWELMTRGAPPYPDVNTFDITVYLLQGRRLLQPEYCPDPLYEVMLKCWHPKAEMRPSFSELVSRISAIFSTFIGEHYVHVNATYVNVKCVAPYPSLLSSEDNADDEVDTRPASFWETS
# c-Met, sequence (P08581 25-307 limits assumed): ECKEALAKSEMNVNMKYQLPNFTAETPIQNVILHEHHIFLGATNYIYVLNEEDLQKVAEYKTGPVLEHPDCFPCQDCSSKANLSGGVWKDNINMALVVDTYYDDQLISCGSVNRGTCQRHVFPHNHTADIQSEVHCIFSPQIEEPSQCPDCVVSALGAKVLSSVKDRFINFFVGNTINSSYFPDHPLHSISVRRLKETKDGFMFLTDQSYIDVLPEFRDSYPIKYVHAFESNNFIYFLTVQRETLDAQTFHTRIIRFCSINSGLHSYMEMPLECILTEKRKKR
substance,measurement,setting,value
Nle-Tyr-Leu-ψ-His-Pro-Phe ([Nle]YLHPF; also: reduced peptide bond psi(CH2NH2) between Leu and His) [Norleual],Competition for 125I-Norleual specific binding to HEK293 cell membranes,[1],competed
same,Mode of inhibition of HGF binding to the c-Met receptor,[2],competitive inhibitor of HGF binding to the c-Met receptor
same,HGF stimulated scratch wound closure,[3],attenuate
same,HGF-initiated association between Gab1 and c-Met,[4]; HEK293 cells,significantly reduced
same,"c-Met phosphorylation, compound applied alone","[4]; HEK293 cells, 10 minutes, no HGF",did not alter
same,HGF-dependent Gab1 phosphorylation (IP anti-c-Met),"[4]; HEK293 cells, Norleual 20 pM, 110 pM HGF",significantly reduced
same,HGF-dependent c-Met phosphorylation,"[4]; HEK293 cells, Norleual 20 pM, 110 pM HGF, 10 minutes",significantly reduced
same,HGF-induced Gab1 phosphorylation (IP anti-Gab1),[4]; HEK293 lysates precipitated with anti-Gab1,inhibited
